Assay results: patent US20190015483A1 (CSL BEHRING RECOMBINANT FACILITY, published 2019)

T1: recombinant Factor VIII (CSL627, rVIII-SingleChain) (Homo sapiens (Human), UniProt P00451 20-2351)
T1 construct: also called FVIII
T1 sequence: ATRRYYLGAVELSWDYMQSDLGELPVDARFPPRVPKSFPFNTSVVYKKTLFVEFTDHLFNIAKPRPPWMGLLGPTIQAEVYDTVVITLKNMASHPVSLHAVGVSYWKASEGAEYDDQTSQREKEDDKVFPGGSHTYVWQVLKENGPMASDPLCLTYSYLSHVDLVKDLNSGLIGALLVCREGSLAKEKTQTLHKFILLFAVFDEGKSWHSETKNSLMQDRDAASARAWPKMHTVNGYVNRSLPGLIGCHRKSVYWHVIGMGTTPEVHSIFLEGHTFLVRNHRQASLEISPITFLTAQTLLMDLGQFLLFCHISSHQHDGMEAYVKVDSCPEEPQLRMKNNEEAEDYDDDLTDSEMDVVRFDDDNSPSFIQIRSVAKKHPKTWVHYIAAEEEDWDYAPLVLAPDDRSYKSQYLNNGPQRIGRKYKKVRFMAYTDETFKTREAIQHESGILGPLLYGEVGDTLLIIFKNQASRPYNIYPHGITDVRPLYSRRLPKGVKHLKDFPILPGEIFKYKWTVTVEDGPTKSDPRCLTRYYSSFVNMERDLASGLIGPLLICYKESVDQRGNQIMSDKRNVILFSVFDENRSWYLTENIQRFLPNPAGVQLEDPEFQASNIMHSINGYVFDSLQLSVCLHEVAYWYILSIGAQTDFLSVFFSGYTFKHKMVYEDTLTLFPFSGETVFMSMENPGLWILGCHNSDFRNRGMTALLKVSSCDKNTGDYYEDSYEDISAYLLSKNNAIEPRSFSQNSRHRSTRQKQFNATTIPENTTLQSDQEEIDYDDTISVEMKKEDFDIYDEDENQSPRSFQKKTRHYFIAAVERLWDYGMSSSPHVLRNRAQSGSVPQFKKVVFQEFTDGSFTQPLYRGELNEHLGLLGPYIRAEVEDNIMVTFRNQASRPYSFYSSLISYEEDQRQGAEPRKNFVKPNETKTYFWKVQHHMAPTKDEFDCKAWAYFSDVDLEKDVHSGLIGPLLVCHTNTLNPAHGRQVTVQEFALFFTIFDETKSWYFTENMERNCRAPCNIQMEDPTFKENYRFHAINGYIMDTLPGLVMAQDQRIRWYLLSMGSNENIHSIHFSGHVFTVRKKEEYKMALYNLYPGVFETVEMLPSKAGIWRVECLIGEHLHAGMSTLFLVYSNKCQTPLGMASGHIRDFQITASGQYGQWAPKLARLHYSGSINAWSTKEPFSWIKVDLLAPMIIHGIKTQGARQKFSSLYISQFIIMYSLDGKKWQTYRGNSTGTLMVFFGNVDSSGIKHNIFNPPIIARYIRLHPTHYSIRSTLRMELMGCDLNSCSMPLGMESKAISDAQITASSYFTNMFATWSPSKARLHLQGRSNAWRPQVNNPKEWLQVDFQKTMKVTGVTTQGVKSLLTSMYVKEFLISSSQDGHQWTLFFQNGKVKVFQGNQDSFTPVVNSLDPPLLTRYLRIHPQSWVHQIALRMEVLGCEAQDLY


Biological target: T1, recombinant Factor VIII (CSL627, …)
Assay: SPR, anti-His capture, FVIII injected, 37 C
Procedure, shortened: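 Screening format: one FVIII level, 1 nM, with 5-minute association and 5-minute dissociation phases over mutants held at 40-150 RU on immobilised anti-His. Signals were corrected by reference-surface and blank subtraction before 1:1 kinetic fitting.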

| Binder | binding result | Kd [nM] | koff [s⁻¹] | kon [M⁻¹ s⁻¹] |
| --- | --- | --- | --- | --- |
| Hu-vWF[764-1270]-8His S766Y-P769A (other) SLYCRAPMVKLVCPADNLRAEGLECTKTCQNYDLECMSMGCVSGCLCPPGMVRHENRCVALERCPCFHQGKEYAPGETVKIGCNTCVCRDRKWNCTDHVCDATCSTIGMAHYLTFDGLKYLFPGECQYVLVQDYCGSNPGTFRILVGNKGCSHPSVKCKKRVTILVEGGEIELFDGEVNVKRPMKDETHFEVVESGRYIILLLGKALSVVWDRHLSISVVLKQTYQEKVCGLCGNFDGIQNNDLTSSNLQVEEDPVDFGNSWKVSSQCADTRKVPLDSSPATCHNNIMKQTMVDSSCRILTSDVFQDCNKLVDPEPYLDVCIYDTCSCESIGDCACFCDTIAAYAHVCAQHGKVVTWRTATLCPQSCEERNLRENGYECEWRYNSCAPACQVTCQHPEPLACPVQCVEGCHAHCPPGKILDELLQTCVDPEDCPVCEVAGRRFASGKKVTLNPSDPEHCQICHCDVVNLTCEACQEPGGLVVPPTDAPVSPTTLYVEDISEPPLHDFHHHHHHHH | – | 0.106 | 0.000519 | 4.9e+06 |
| Hu-vWF[764-1270]-8His S766Y-P769D (other) SLYCRDPMVKLVCPADNLRAEGLECTKTCQNYDLECMSMGCVSGCLCPPGMVRHENRCVALERCPCFHQGKEYAPGETVKIGCNTCVCRDRKWNCTDHVCDATCSTIGMAHYLTFDGLKYLFPGECQYVLVQDYCGSNPGTFRILVGNKGCSHPSVKCKKRVTILVEGGEIELFDGEVNVKRPMKDETHFEVVESGRYIILLLGKALSVVWDRHLSISVVLKQTYQEKVCGLCGNFDGIQNNDLTSSNLQVEEDPVDFGNSWKVSSQCADTRKVPLDSSPATCHNNIMKQTMVDSSCRILTSDVFQDCNKLVDPEPYLDVCIYDTCSCESIGDCACFCDTIAAYAHVCAQHGKVVTWRTATLCPQSCEERNLRENGYECEWRYNSCAPACQVTCQHPEPLACPVQCVEGCHAHCPPGKILDELLQTCVDPEDCPVCEVAGRRFASGKKVTLNPSDPEHCQICHCDVVNLTCEACQEPGGLVVPPTDAPVSPTTLYVEDISEPPLHDFHHHHHHHH | – | 0.165 | 0.000763 | 4.63e+06 |
| Hu-vWF[764-1270]-8His S766Y-P769E (other) SLYCREPMVKLVCPADNLRAEGLECTKTCQNYDLECMSMGCVSGCLCPPGMVRHENRCVALERCPCFHQGKEYAPGETVKIGCNTCVCRDRKWNCTDHVCDATCSTIGMAHYLTFDGLKYLFPGECQYVLVQDYCGSNPGTFRILVGNKGCSHPSVKCKKRVTILVEGGEIELFDGEVNVKRPMKDETHFEVVESGRYIILLLGKALSVVWDRHLSISVVLKQTYQEKVCGLCGNFDGIQNNDLTSSNLQVEEDPVDFGNSWKVSSQCADTRKVPLDSSPATCHNNIMKQTMVDSSCRILTSDVFQDCNKLVDPEPYLDVCIYDTCSCESIGDCACFCDTIAAYAHVCAQHGKVVTWRTATLCPQSCEERNLRENGYECEWRYNSCAPACQVTCQHPEPLACPVQCVEGCHAHCPPGKILDELLQTCVDPEDCPVCEVAGRRFASGKKVTLNPSDPEHCQICHCDVVNLTCEACQEPGGLVVPPTDAPVSPTTLYVEDISEPPLHDFHHHHHHHH | – | 0.0936 | 0.000414 | 4.42e+06 |
| Hu-vWF[764-1270]-8His S766Y-P769F (other) SLYCRFPMVKLVCPADNLRAEGLECTKTCQNYDLECMSMGCVSGCLCPPGMVRHENRCVALERCPCFHQGKEYAPGETVKIGCNTCVCRDRKWNCTDHVCDATCSTIGMAHYLTFDGLKYLFPGECQYVLVQDYCGSNPGTFRILVGNKGCSHPSVKCKKRVTILVEGGEIELFDGEVNVKRPMKDETHFEVVESGRYIILLLGKALSVVWDRHLSISVVLKQTYQEKVCGLCGNFDGIQNNDLTSSNLQVEEDPVDFGNSWKVSSQCADTRKVPLDSSPATCHNNIMKQTMVDSSCRILTSDVFQDCNKLVDPEPYLDVCIYDTCSCESIGDCACFCDTIAAYAHVCAQHGKVVTWRTATLCPQSCEERNLRENGYECEWRYNSCAPACQVTCQHPEPLACPVQCVEGCHAHCPPGKILDELLQTCVDPEDCPVCEVAGRRFASGKKVTLNPSDPEHCQICHCDVVNLTCEACQEPGGLVVPPTDAPVSPTTLYVEDISEPPLHDFHHHHHHHH | – | 0.0772 | 0.000427 | 5.54e+06 |

Continued, values first:

| binding result | Kd [nM] | koff [s⁻¹] | kon [M⁻¹ s⁻¹] | Binder |
| --- | --- | --- | --- | --- |
| no binding | – | – | – | Hu-vWF[764-1270]-8His S766W-S806W (other) SLWCRPPMVKLVCPADNLRAEGLECTKTCQNYDLECMSMGCVWGCLCPPGMVRHENRCVALERCPCFHQGKEYAPGETVKIGCNTCVCRDRKWNCTDHVCDATCSTIGMAHYLTFDGLKYLFPGECQYVLVQDYCGSNPGTFRILVGNKGCSHPSVKCKKRVTILVEGGEIELFDGEVNVKRPMKDETHFEVVESGRYIILLLGKALSVVWDRHLSISVVLKQTYQEKVCGLCGNFDGIQNNDLTSSNLQVEEDPVDFGNSWKVSSQCADTRKVPLDSSPATCHNNIMKQTMVDSSCRILTSDVFQDCNKLVDPEPYLDVCIYDTCSCESIGDCACFCDTIAAYAHVCAQHGKVVTWRTATLCPQSCEERNLRENGYECEWRYNSCAPACQVTCQHPEPLACPVQCVEGCHAHCPPGKILDELLQTCVDPEDCPVCEVAGRRFASGKKVTLNPSDPEHCQICHCDVVNLTCEACQEPGGLVVPPTDAPVSPTTLYVEDISEPPLHDFHHHHHHHH |
| no binding | – | – | – | Hu-vWF[764-1270]-8His S766W-S806Y (other) SLWCRPPMVKLVCPADNLRAEGLECTKTCQNYDLECMSMGCVYGCLCPPGMVRHENRCVALERCPCFHQGKEYAPGETVKIGCNTCVCRDRKWNCTDHVCDATCSTIGMAHYLTFDGLKYLFPGECQYVLVQDYCGSNPGTFRILVGNKGCSHPSVKCKKRVTILVEGGEIELFDGEVNVKRPMKDETHFEVVESGRYIILLLGKALSVVWDRHLSISVVLKQTYQEKVCGLCGNFDGIQNNDLTSSNLQVEEDPVDFGNSWKVSSQCADTRKVPLDSSPATCHNNIMKQTMVDSSCRILTSDVFQDCNKLVDPEPYLDVCIYDTCSCESIGDCACFCDTIAAYAHVCAQHGKVVTWRTATLCPQSCEERNLRENGYECEWRYNSCAPACQVTCQHPEPLACPVQCVEGCHAHCPPGKILDELLQTCVDPEDCPVCEVAGRRFASGKKVTLNPSDPEHCQICHCDVVNLTCEACQEPGGLVVPPTDAPVSPTTLYVEDISEPPLHDFHHHHHHHH |
| – | 0.212 | 0.000783 | 3.7e+06 | Hu-vWF[764-1270]-8His S766Y-P769G (other) SLYCRGPMVKLVCPADNLRAEGLECTKTCQNYDLECMSMGCVSGCLCPPGMVRHENRCVALERCPCFHQGKEYAPGETVKIGCNTCVCRDRKWNCTDHVCDATCSTIGMAHYLTFDGLKYLFPGECQYVLVQDYCGSNPGTFRILVGNKGCSHPSVKCKKRVTILVEGGEIELFDGEVNVKRPMKDETHFEVVESGRYIILLLGKALSVVWDRHLSISVVLKQTYQEKVCGLCGNFDGIQNNDLTSSNLQVEEDPVDFGNSWKVSSQCADTRKVPLDSSPATCHNNIMKQTMVDSSCRILTSDVFQDCNKLVDPEPYLDVCIYDTCSCESIGDCACFCDTIAAYAHVCAQHGKVVTWRTATLCPQSCEERNLRENGYECEWRYNSCAPACQVTCQHPEPLACPVQCVEGCHAHCPPGKILDELLQTCVDPEDCPVCEVAGRRFASGKKVTLNPSDPEHCQICHCDVVNLTCEACQEPGGLVVPPTDAPVSPTTLYVEDISEPPLHDFHHHHHHHH |
| – | 0.0809 | 0.000417 | 5.16e+06 | Hu-vWF[764-1270]-8His S766Y-P769H (other) SLYCRHPMVKLVCPADNLRAEGLECTKTCQNYDLECMSMGCVSGCLCPPGMVRHENRCVALERCPCFHQGKEYAPGETVKIGCNTCVCRDRKWNCTDHVCDATCSTIGMAHYLTFDGLKYLFPGECQYVLVQDYCGSNPGTFRILVGNKGCSHPSVKCKKRVTILVEGGEIELFDGEVNVKRPMKDETHFEVVESGRYIILLLGKALSVVWDRHLSISVVLKQTYQEKVCGLCGNFDGIQNNDLTSSNLQVEEDPVDFGNSWKVSSQCADTRKVPLDSSPATCHNNIMKQTMVDSSCRILTSDVFQDCNKLVDPEPYLDVCIYDTCSCESIGDCACFCDTIAAYAHVCAQHGKVVTWRTATLCPQSCEERNLRENGYECEWRYNSCAPACQVTCQHPEPLACPVQCVEGCHAHCPPGKILDELLQTCVDPEDCPVCEVAGRRFASGKKVTLNPSDPEHCQICHCDVVNLTCEACQEPGGLVVPPTDAPVSPTTLYVEDISEPPLHDFHHHHHHHH |
